Laboratory results: US20050064507A1, “Determining kinase specificity” (priority 2003, published 2005)

Assays:
Format in all cases: biochemical
[1] = target: T1, PKC-delta (Homo sapiens, UniProt Q05655); experiment: In vitro kinase assay: peptide phosphorylation by PKC-delta
T1 construct: purchased Calbiochem
In short: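 Biotin-Lys-dansyl-Lys-Pro-Pro-Gly-linked proteomic peptides (12–21-residue core) phosphorylated by PKC-delta in HEPES/Triton/CaCl2/MgCl2 buffer with phosphatidyl serine and PMA, 100 μM [γ-32P]ATP, 30° C., ~10 min, stoichiometry ≤5%; streptavidin-plate capture. Signal normalized as % of best peptide substrate.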

[2] = target: T2, PKA (Homo sapiens, UniProt P17612); experiment: In vitro kinase assay: peptide phosphorylation by PKA; conditions: normalized to best substrate
T2 construct: purchased Calbiochem
Method: (§1) Catalytically active preparations of the kinases of interest were either purchased or prepared. Purchased and tested active kinase preparations including the following: PKC-alpha, PKC-delta, PKC-epsilon, PKC-zeta, PKC-mu, PKA, PKG from Calbiochem, ROK alpha/ROCK-II, active from Upstate Biotechnology, and AKT1 from Panvera.
(§2) The conditions of the kinase assay and the amount of active kinase used varied with the kinase and with the accuracy needed. For a typical experiment, 5-20 ng of kinase was used per well and each peptide pool was assayed in duplicate wells. Note that the absolute amount of kinase used was not usually a critical parameter, because the desired information related to specificity of the kinase not its absolute activity, and robustness of the assay depends on comparisons of the same amount of kinase on different peptides. The combination of kinase concentration and assay duration was modified to assure that the stoichiometry of peptide phosphorylation never exceeded 5%. The choice of kinase buffer depended on the kinase being analyzed. For studies of PKC, 100 mM HEPES, 0.05% Triton-X100, 1 mM CaCl2, 20 mM MgCl2, 0.2 mg/ml phosphatidyl serine (Avanti Polar Lipids), PMA 100 ng/ml was typically used. The lipid stock was prepared by transferring 3 mg phosphatidyl serine into iced mixture of 450 μl water plus 50 μl of 10% Triton-X100, sonicating 10 times on ice for 1 sec each.
(§3) The kinase reaction mixture was assembled by sequential addition to a tube held on ice of: 5 μl peptide (100 μM for final concentration of 10 μM), 15 μl of kinase (typically 5 ng/well, in appropriate kinase buffer), 30 μl of ATP (1 uCi/well of ^32P-gamma ATP in a stock of 167 μM cold ATP in the kinase buffer; for final concentration for 100 μM ATP). The mixture was rapidly warmed to desired reaction temperature (30° C. for PKC) and incubated for the desired duration (usually 10 minutes). The kinase assay was terminated by transfer to 4° C. water batch, and rapid addition of an equal volume (50 μl) of stop solution [0.1M ATP+0.1M EDTA in water, pH 8].
(§4) The peptides were then captured from the reaction mixture by transfer to a Reacti-Bind Streptavidin High Binding Capacity Coated Plates (HBC) (Pierce Biotechnology) as follows. The HBC plates were pre-rinsed three times with PBS/Tween PBS/Tween20 0.05% (PBS/Tween). Part of all of the reaction mixture was then transferred wells of a HBC plate pre-filled with 90 μl of phosphate-buffered saline (PBS); typically each aliquots of each phosphorylation reaction were transferred to duplicate HBC plates to assure accuracy by additional replication
(§5) For kinase assays done at the standard peptide concentration of 10 μM, the peptide concentration in the reaction mixture becomes 5 μM after addition of the stop solution; consequently 10 μl of the reaction (50 pMoles of peptide) was transferred to the HBC plate. More generally, the amount of reaction mixture transferred was estimated to be about 50 pMoles of peptide. […] The HBC plates were incubated for 0.5 to 1.5 hr at room temperature for complete binding of biotinylated peptides to plate-bound streptavidin. The HBC plates were then washed extensively with PBS/Tween. Five washes were done routinely and additional wash steps were added if the wash solution removed from the plate had measurable radioactivity as detected using a Geiger counter. This step is essential to obtaining a good the signal to noise ratio because the fraction of radioactivity incorporated in the peptides was a tiny fraction of the total in the reaction mixture. The wells were air-dried. A volume of 40-50 μl of microScint-20 (Packard Instruments) was added to each well. The plates were covered with stick-on film sheet. Radioactive emissions were measured in a TopCount NXT Microplate Scintillation and Luminescence Counter (Packard Instruments). Typically samples were counted for 5 minutes (or more) to improve the signal to noise ratio when counts were low. […]

[3] = target: T3, AKT1 (Homo sapiens, UniProt P31749); experiment: In vitro kinase assay: peptide phosphorylation by AKT1; conditions: normalized to best substrate
T3 construct: purchased Panvera
Method: as §1, §2, §3, §4, §5

T1 sequence (Q05655 whole entry): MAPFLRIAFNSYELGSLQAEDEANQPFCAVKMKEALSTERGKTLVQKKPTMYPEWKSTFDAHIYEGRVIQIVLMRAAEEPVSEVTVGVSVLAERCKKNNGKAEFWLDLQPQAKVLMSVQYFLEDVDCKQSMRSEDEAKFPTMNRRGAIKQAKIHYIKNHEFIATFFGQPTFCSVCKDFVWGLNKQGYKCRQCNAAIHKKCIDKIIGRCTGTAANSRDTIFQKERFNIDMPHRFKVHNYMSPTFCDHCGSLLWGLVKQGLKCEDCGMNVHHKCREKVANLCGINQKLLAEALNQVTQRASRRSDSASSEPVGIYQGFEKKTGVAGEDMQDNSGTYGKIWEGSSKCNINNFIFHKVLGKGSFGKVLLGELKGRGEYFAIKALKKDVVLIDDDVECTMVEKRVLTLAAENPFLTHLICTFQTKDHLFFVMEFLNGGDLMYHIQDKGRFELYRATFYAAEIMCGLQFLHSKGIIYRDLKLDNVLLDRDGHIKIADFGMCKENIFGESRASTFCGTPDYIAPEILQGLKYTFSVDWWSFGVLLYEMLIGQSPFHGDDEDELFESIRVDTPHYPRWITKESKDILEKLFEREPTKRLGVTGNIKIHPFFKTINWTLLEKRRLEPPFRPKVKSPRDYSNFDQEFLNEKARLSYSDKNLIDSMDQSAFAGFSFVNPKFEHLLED
T3 sequence (P31749 whole entry, species assumed): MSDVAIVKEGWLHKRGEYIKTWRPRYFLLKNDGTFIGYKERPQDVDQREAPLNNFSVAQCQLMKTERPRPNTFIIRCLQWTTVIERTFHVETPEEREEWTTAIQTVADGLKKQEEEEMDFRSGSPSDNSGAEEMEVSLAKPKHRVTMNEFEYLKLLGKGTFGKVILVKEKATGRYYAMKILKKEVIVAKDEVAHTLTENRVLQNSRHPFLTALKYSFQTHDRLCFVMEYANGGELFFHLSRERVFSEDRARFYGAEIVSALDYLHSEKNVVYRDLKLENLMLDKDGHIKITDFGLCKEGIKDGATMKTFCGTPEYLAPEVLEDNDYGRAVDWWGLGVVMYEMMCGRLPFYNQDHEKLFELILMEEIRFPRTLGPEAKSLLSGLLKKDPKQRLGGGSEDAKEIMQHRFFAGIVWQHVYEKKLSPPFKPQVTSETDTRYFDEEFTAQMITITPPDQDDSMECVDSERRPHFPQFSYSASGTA

## 153 (TYLLPDKSRQGKRKTSIKRD) [compound 153]
[1]; peptide concentration 1 uM
  phosphorylation by PKC-delta: 32
[1]; peptide concentration 10 uM
  phosphorylation by PKC-delta: 26

## 152 (DLIEGRKGAQIVKRASLKRG) [compound 152]
[1]; peptide concentration 1 uM
  phosphorylation by PKC-delta: 35
[1]; peptide concentration 10 uM
  phosphorylation by PKC-delta: 18

## 81 (KRERKTSSKSSVRKRR) [compound 81]
[2]
  PKA phosphorylation: 2%
[3]
  AKT1 phosphorylation: 9%

## 91 (VHYTSKDTLRKRHYWR) [compound 91]
[2]
  PKA phosphorylation: 3%
[3]
  AKT1 phosphorylation: 5%

## 88 (KKPFKLSGLSFKRNRKE) [compound 88]
[2]
  PKA phosphorylation: 3%
[3]
  AKT1 phosphorylation: 10%

## 98 (AGPLRKSSLKKGGRL) [compound 98]
[2]
  PKA phosphorylation: 21%
[3]
  AKT1 phosphorylation: 7%

## 149 (RVVQSVKHTKRKSSTVMK) [compound 149]
[1]; peptide concentration 1 uM
  phosphorylation by PKC-delta: 20
[1]; peptide concentration 10 uM
  phosphorylation by PKC-delta: 17

## 97 (KKRSSKKEASMKKVVRP) [compound 97]
[2]
  PKA phosphorylation: 1%
[3]
  AKT1 phosphorylation: 10%

## 87 (RQGKRKTSIKRDTVNPL) [compound 87]
[2]
  PKA phosphorylation: 64%
[3]
  AKT1 phosphorylation: 7%

## 151 (PQNSLKASNRKKKRTSFKRK) [compound 151]
[1]; peptide concentration 1 uM
  phosphorylation by PKC-delta: 27
[1]; peptide concentration 10 uM
  phosphorylation by PKC-delta: 37

## 150 (VDPFYEMLAARKKRISVKKK) [compound 150]
[1]; peptide concentration 1 uM
  phosphorylation by PKC-delta: 34
[1]; peptide concentration 10 uM
  phosphorylation by PKC-delta: 20

## 148 (RELEQLKAEYLERRASRRRA) [compound 148]
[1]; peptide concentration 1 uM
  phosphorylation by PKC-delta: 27
[1]; peptide concentration 10 uM
  phosphorylation by PKC-delta: 14
